# Data from the supplement of paper PMC11908140.
# B1: library; numbered along this chain (parent)
# chain: MRKPRAAVGSGHRKQAASQEGRQKHAKNNSQAKPSACDGLARQPEEVVLQASVSSYHLFRDVAEVTAFRGSLLSWYDQEKRDLPWRRRAEDEMDLDRRAYAVWVSEVMLQQTQVATVINYYTGWMQKWPTLQDLASASLEEVNQLWAGLGYYSRGRRLQEGARKVVEELGGHMPRTAETLQQLLPGVGRYTAGAIASIAFGQATGVVDGNVARVLCRVRAIGADPSSTLVSQQLWGLAQQLVDPARPGDFNQAAMELGATVCTPQRPLCSQCPVESLCRARQRVEQEQLLASGSLSGSPDVEECAPNTGQCHLCLPPSEPWDQTLGVVNFPRKASRKPPREESSATCVLEQPGALGAQILLVQRPNSGLLAGLWEFPSVTWEPSEQLQRKALLQELQRWAGPLPATHLRHLGEVVHTFSHIKLTYQVYGLALEGQTPVTTVPPGARWLTQEEFHTAAVSTAMKKVFRVYQGQQPGTCMGSKRSQVSSPCSRKKPRMGQQVLDNFFRSHISTDAHSLNSAAQ
# Variants of: B1
# Experiment: 8OG:A repair function score (normalized; synonymous = 0, nonsense = -1) (normalized log-likelihood score); higher = more repair activity (WT-like)
# Conditions: with 8OG:A DNA repair reporter (GFP) in HEK-293 MUTYH KO cells
# Procedure, shortened: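 MUTYH knockout HEK-293 cells carrying lentiviral MUTYH cDNA NNN codon-scan libraries were grown with 10 pg/ml doxycycline and co-transfected with mCherry and a GFP reporter of 8OG:A repair. Viable mCherry+ cells were sorted at 72 h into GFP+ (repair) and GFP− bins, with three replicates per tile, and tile amplicons were sequenced. Rosace fitness scores for each tile were turned into a normalized repair function score anchored on the synonymous and nonsense distributions. Synonymous medians were set to 0 and nonsense medians to -1, and variants below 300 counts per million at the start were dropped.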
row,Variant,8OG:A repair function score
1,P185N,-0.12
2,S318L,-0.0905
3,Q265A,-0.0137
4,S344K,0.0408
5,S344C,0.0475
6,G372Y,-0.393
7,M173Q,-0.93
8,Q239W,-0.74
9,G205P,0.0348
10,V166R,-0.182
11,V166H,-0.183
12,S367Y,-0.204
13,L257T,-0.763
14,L257D,-0.98
15,N517F,-0.0651
16,S480N,0.0064
17,S480G,0.00341
18,S480L,-0.0111
19,A67K,-0.0225
20,A41F,0.0355
21,H454L,-0.234
22,L73P,-1.57
23,L73I,-0.0679
24,T191M,-0.127

row,Variant,8OG:A repair function score
1,T406Y,-0.265
2,T511C,-0.014
3,P377I,-0.348
4,R336F,-0.164
5,G148S,-0.286
6,A245I,-0.104
7,A245E,0.644
8,L392F,-0.647
9,V211P,-1.02
10,N210G,-0.962
11,H407R,-0.0136
12,H407C,-0.123
13,A203K,0.0825
14,D96Q,-0.0411
15,I421Y,-0.435
16,I421V,-0.0973
17,R491A,0.00371
18,R491G,0.00614
19,E167R,-0.0147
20,Q288D,-0.0736
21,V65Y,-0.0274
22,V65L,-0.0109
23,V62N,0.00416
24,P299K,-0.0515

row,Variant,8OG:A repair function score
1,R217A,-1.02
2,R217P,-1.04
3,G155F,-0.526
4,S136T,0.078
5,T424I,0.0389
6,D82A,-0.0548
7,P494I,0.0172
8,L183Y,0.0742
9,E160Y,-0.063
10,R246E,-0.696
11,P488H,0.0202
12,A147E,-0.144
13,W321R,-0.203
14,W321Y,-0.123
15,S292N,-0.0335
16,S227T,0.0756
17,L184T,-0.62
18,L229A,0.087
19,Q159R,0.162
20,V114E,-0.932
21,T263L,-0.0322
22,V284G,-0.236
23,V284K,-0.0279
24,F59D,-0.583

row,Variant,8OG:A repair function score
1,F59T,-0.579
2,C314I,-0.652
3,G401P,0.0452
4,Q240H,-0.94
5,A212Q,-0.0874
6,R69P,-1.42
7,N329G,-0.365
8,P129T,-0.491
9,L516F,0.0067
10,H508E,0.0183
11,L355K,-0.0816
12,L423F,-0.0863
13,Y121P,-1.26
14,D243N,-0.739
15,D243Q,-0.829
16,D243C,-0.276
17,K337Y,-0.118
18,K337Q,-0.0917
19,K3Y,0.137
20,T417S,0.0785
21,T417P,-0.506
22,T417I,-0.142
23,T417F,0.0432
24,R88Y,-0.0224

row,Variant,8OG:A repair function score
1,C262S,-1.38
2,C262M,-1.06
3,R279D,-0.718
4,E46D,0.0496
5,L83Q,-0.947
6,L83N,-0.585
7,L83W,-0.827
8,A51L,-0.036
9,G123Q,0.213
10,L403M,-0.0231
11,S490L,0.0149
12,E451G,-0.0413
13,A238L,-0.816
14,Y152T,-0.854
15,A115D,-0.0868
16,A457I,-0.537
17,A457C,-0.467
18,H312E,0.0205
19,P306L,-0.00346
20,P306V,-0.015
21,G429N,-0.133
22,L373T,-0.0654
23,L149H,-1.82
24,L149D,-1.19

row,Variant,8OG:A repair function score
1,L313F,-0.0503
2,V214P,-1.01
3,V214A,-0.504
4,G497V,-0.00253
5,G497L,-0.0147
6,Q181G,-0.165
7,S459T,-0.392
8,S459Y,-0.268
9,L131P,-0.153
10,T122D,0.0468
11,L158I,-0.11
12,L158F,-0.384
13,A135R,-0.0784
14,E395P,-0.546
15,R446P,-1.13
16,D91C,-0.0114
17,A291I,-0.0181
18,L361D,-1.06
19,Q397E,-0.364
20,V107C,-0.0803
21,N251K,-0.983
22,F504H,0.0204
23,D502G,-0.00456
24,Q252Y,-0.982

row,Variant,8OG:A repair function score
1,P317E,-0.0108
2,A6E,0.137
3,Q271H,-0.0231
4,E275M,0.00516
5,E275G,-0.00445
6,S518P,-0.0287
7,S518R,-0.0226
8,V218S,-0.374
9,L369G,-0.359
10,L369A,0.0443
11,W399Q,-0.108
12,R98C,-0.578
13,S138E,-0.00767
14,L411Y,0.251
15,L411T,-0.469
16,L411R,-0.222
17,R157T,-0.216
18,R157N,0.023
19,L237A,-0.321
20,P402S,-0.138
21,E382A,-0.0399
22,E382D,-0.0303
23,L109I,-1.04
24,C269F,-1.16

row,Variant,8OG:A repair function score
1,A101G,-0.024
2,A101I,-0.0179
3,Y469Q,-0.317
4,A89V,0.00684
5,V230K,-0.826
6,F68P,-1.6
7,F68T,-0.393
8,A391V,0.0327
9,A391N,-0.196
10,A391E,-0.106
11,A391L,-0.101
12,N366E,0.176
13,G209P,-0.887
14,G209V,-0.00522
15,F330N,-1.18
16,F330Y,-0.0696
17,K422Y,-0.355
18,G248H,-0.883
19,S487F,-0.00307
20,G471L,-0.0292
21,G471R,0.00545
22,R340S,-0.153
23,R340V,-0.304
24,R340W,-0.144

row,Variant,8OG:A repair function score
1,D249E,-0.208
2,I359H,-0.143
3,I359A,-0.485
4,Q182H,0.0507
5,Q182G,-0.00226
6,D322P,-0.322
7,D322S,-0.0836
8,L145I,-0.102
9,R86P,-0.841
10,V441A,-0.0435
11,T324Y,-0.0755
12,A63K,-0.00172
13,A223H,-0.196
14,L277R,-0.152
15,L277V,-0.0751
16,P34L,0.131
17,W235S,-0.516
18,W235M,-0.389
19,W235Y,-0.177
20,Q202D,0.0238
21,G161S,-0.13
22,L72P,-1.34
23,L72I,-0.0959
24,S270F,-0.0287

row,Variant,8OG:A repair function score
1,K481M,-0.00967
2,K481D,0.016
3,Q126H,-0.0777
4,E106A,-0.944
5,E106D,-0.903
6,P437T,-0.142
7,Q435F,-0.052
8,Q435S,0.261
9,Q435C,0.293
10,T260K,-0.0184
11,V117Q,-1.26
12,A400R,-0.432
13,S419Y,-0.503
14,S419D,-0.221
15,T179V,-0.0453
16,E287I,-0.038
17,F453P,-0.896
18,F453C,-0.791
19,A456S,-0.267
20,T308G,-0.0427
21,T308S,-0.000367
22,T308W,0.00192
23,A162R,-1.02
24,V465Y,-1.23

row,Variant,8OG:A repair function score
1,Q50K,0.0673
2,Q470G,-0.105
3,Q43V,-0.0464
4,T176A,-0.251
5,K127I,-0.204
6,P320L,-0.0348
7,E385N,-0.0672
8,E385L,0.0198
9,K80G,-0.194
10,Q132H,-0.0442
11,Q132F,-0.327
12,Y190E,-0.808
13,G171L,-0.605
14,T476E,0.0105
15,T476S,0.00281
16,F466A,-0.4
17,K492L,-0.0333
18,K492Y,-0.0316
19,Q323C,-0.0398
20,M255N,-1.03
21,Q310T,0.0177
22,L215M,-0.129
23,V206Y,-1.01
24,V261M,-0.124

row,Variant,8OG:A repair function score
1,V261N,-0.379
2,F376C,-0.559
3,G368K,-0.348
4,T228Y,-0.0271
5,I195R,-1.02
6,Q78N,-0.105
7,P316Y,-0.161
8,R364Y,-0.593
9,R364F,-0.639
10,G170R,-0.0153
11,V415K,-0.327
12,T380M,-0.0793
13,E79A,0.00477
14,E79R,0.00654
15,A280V,-0.0812
16,A280K,-0.812
17,P44G,-0.111
18,P44M,-0.107
19,E302L,-0.236
20,W146R,-1.28
21,W146N,-0.671
22,P225V,-0.0099
23,L370D,-1
24,C272P,-1.26

row,Variant,8OG:A repair function score
1,L396D,-1.33
2,L95C,-0.0111
3,Q473N,0.0155
4,Q473V,0.00634
5,N307L,-0.079
6,G150A,-1.42
7,G150Y,-0.803
8,R42C,0.0324
9,R42T,-0.0609
10,Q388E,-0.368
11,Q388H,-0.356
12,T66A,-0.0148
13,T66C,0.00591
14,W128N,-0.681
15,W128K,-0.455
16,W128R,-0.696
17,A334V,0.00558
18,A334H,0.0495
19,C304K,-0.535
20,D94Y,-0.33
21,W75E,-1.57
22,D300T,-0.109
23,D300Q,-0.112
24,Y428R,-1.14

row,Variant,8OG:A repair function score
1,L387F,-0.293
2,A177D,-0.363
3,A177F,-0.273
4,Q232N,-0.0697
5,A220E,-0.465
6,A220N,-0.671
7,T346V,0.0305
8,T449L,-0.0459
9,V485D,0.0102
10,V485P,-0.0106
11,A461S,-0.119
12,S296E,-0.0247
13,G39R,0.0558
14,K333R,0.0284
15,E342C,0.0508
16,K463M,-0.0542
17,K463C,-0.196
18,Q110S,-1.26
19,A305T,-0.034
20,W124Y,-0.973
21,S378K,-0.24
22,C278L,-1.1
